The values that follow are results of earlier work, collected in publication PMC6691393.

One may read the Kd as a measure of binding affinity in units of concentration.

This data set concerns the target Survivin BIR (Homo sapiens) (UniProt O15392).
UniProt O15392, sequence (O15392 15-91): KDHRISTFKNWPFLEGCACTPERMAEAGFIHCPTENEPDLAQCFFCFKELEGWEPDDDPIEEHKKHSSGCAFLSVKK

On to “SMAC/Diablo N-terminal peptide (from UniProt Q9NR28)”, for which the Kd was 121 µM.
